Laboratory results as given in the supplement of paper PMC10126150.
± gives the standard deviation of the averaged measurements.

Test system: ATP
Assay: switch fluorescence ratio, 500 uM ATP over buffer (Cy3 cluster intensity, sum of 5 cycles each) (fold (ratio)); higher = stronger signal-on switching upon ATP binding; sequences stand for … in TCGTCGGCAGCGTCAGATGTGTATAAGAGACAGTTTTTTTTTTTTTTTTTTTTTTTTT…TC
Settings: aptamer strand: ATP DNA aptamer (quencher-CACCTGGGGGAGTATTGCGGAGGAAGG + anchor), 100 nM annealed; ATP concentration: 500 uM
Outline: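 Clusters carrying Cy3-labelled switching strands on a modified Illumina MiSeq flow-cell were annealed to 100 nM quencher-labelled ATP aptamer and imaged in selection buffer. They were imaged again after 15 min with 500 uM ATP at 22 °C, over five buffer/ATP cycles with NaOH stripping and re-annealing in between. For each cluster, the fluorescence ratio is the summed Cy3 intensity of the target cycles divided by that of the buffer cycles, averaged per switch-domain sequence. Clusters outside 100-1000 RFU were left out.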
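Further: ATP exposure 15 min at 22 °C before imaging.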

Sequence | switch fluorescence ratio
CTAGATCGAT | 0.992 ± 0.022
CTAGATCGGT | 0.982 ± 0.051
CTAGATGTTG | 0.977 ± 0.0027
CTAGCGGTCG | 0.997 ± 0.0051
CTAGCTTAGC | 0.9902 ± 0.0056
CTAGGACTTG | 0.945 ± 0.026
CTAGGATTAA | 0.985 ± 0.013
CTAGGCACAT | 1.1 ± 0.016
CTAGGGAAAC | 1.002 ± 0.009
CTAGGGCACA | 1.07 ± 0.1
CTAGGGCATG | 0.98 ± 0.016
CTAGGGGACA | 1.04 ± 0.029
CTAGGGGGTC | 0.993 ± 0.046
CTAGGGGGTT | 1 ± 0.034
CTAGGGGTAT | 1.03 ± 0.14
CTAGGGTTCT | 1.03 ± 0.019
CTAGGTCTGT | 1 ± 0.011
CTAGGTGGTT | 0.991 ± 0.04
CTAGGTTTTG | 0.995 ± 0.047
CTAGTAAGCG | 0.998 ± 0.048
CTAGTCCTGA | 0.986 ± 0.043
CTAGTGACTA | 0.987 ± 0.032
CTAGTGAGTT | 0.999 ± 0.023
CTAGTGGGTT | 0.973 ± 0.02
CTAGTTATGA | 1.02 ± 0.016

Sequence | switch fluorescence ratio
CTAGTTGGTC | 0.981 ± 0.033
CTAGTTTTTT | 0.9893 ± 0.0062
CTATAATCTA | 0.976 ± 0.041
CTATATACCA | 1.06 ± 0.043
CTATATTAGT | 1 ± 0.045
CTATCTTTAG | 0.9891 ± 0.0043
CTATGAGTGA | 1.01 ± 0.018
CTATGATCTT | 0.992 ± 0.012
CTATGATTGT | 0.977 ± 0.04
CTATGCTCAC | 1.45 ± 0.041
CTATGGCTGG | 0.981 ± 0.017
CTATGGGGGA | 1.04 ± 0.02
CTATGTTGTT | 1 ± 0.018
CTATTAAGGT | 0.98 ± 0.021
CTATTACGTC | 0.984 ± 0.045
CTATTATGTG | 0.985 ± 0.043
CTATTATTCG | 1.01 ± 0.045
CTATTTGAGG | 0.9825 ± 0.004
CTCAATGACT | 1.02 ± 0.016
CTCAATGTAT | 0.989 ± 0.032
CTCAATTTTA | 0.9743 ± 0.006
CTCACCACGA | 1.09 ± 0.057
CTCACTAGCG | 1.02 ± 0.031
CTCACTGCAT | 1.46 ± 0.11
CTCAGCAGTC | 1.2 ± 0.034

Sequence | switch fluorescence ratio
CTCAGCCAGT | 1.29 ± 0.056
CTCAGGGATT | 1.07 ± 0.033
CTCAGTAGGG | 0.975 ± 0.024
CTCAGTATCG | 1.012 ± 0.002
CTCATAACAT | 1.01 ± 0.032
CTCATAGGGA | 0.983 ± 0.024
CTCATTTATT | 0.98 ± 0.064
CTCCAGACGA | 1.47 ± 0.083
CTCCGGCGGG | 1.18 ± 0.057
CTCCGGGAAA | 1.214 ± 0.0036
CTCCTGGCCA | 1.13 ± 0.014
CTCCTTAGTT | 1.05 ± 0.035
CTCCTTTTTC | 0.976 ± 0.057
CTCGACATTT | 1.02 ± 0.027
CTCGATAGTA | 0.9741 ± 0.003
CTCGCAGGGG | 1.37 ± 0.2
CTCGCATGGT | 1.37 ± 0.024
CTCGCCGATA | 1.03 ± 0.031
CTCGCGGGTG | 1.14 ± 0.11
CTCGGATTGG | 1 ± 0.015
CTCGGCCGAG | 0.982 ± 0.016
CTCGGGGGGG | 0.998 ± 0.028
CTCGGGTGGT | 0.997 ± 0.061
CTCGTAAACG | 1 ± 0.02
CTCGTATCAG | 1.01 ± 0.021

Sequence | switch fluorescence ratio
CTCGTCCTTA | 1.019 ± 0.0051
CTCGTCGTAT | 1.06 ± 0.05
CTCGTGTTCG | 0.984 ± 0.013
CTCGTGTTGG | 0.989 ± 0.018
CTCGTTCCTG | 1 ± 0.031
CTCGTTCTTT | 1 ± 0.031
CTCTAACAGC | 1.08 ± 0.022
CTCTAACGG | 0.982 ± 0.089
CTCTAAGGC | 1.094 ± 0.0084
CTCTATATTG | 1.008 ± 0.0073
CTCTATTGAT | 0.997 ± 0.017
CTCTATTTGA | 0.977 ± 0.016
CTCTCGAAGC | 1.1577 ± 0.0001
CTCTGAGAGG | 0.9719 ± 0.0043
CTCTGATAGC | 1.23 ± 0.013
CTCTGTGACG | 1.03 ± 0.012
CTCTGTGGTG | 1.02 ± 0.048
CTCTGTGTTT | 0.9924 ± 0.00037
CTCTGTTGTG | 0.961 ± 0.012
CTCTTAGTTT | 0.999 ± 0.023
CTCTTGGGCT | 0.971 ± 0.089
CTCTTGTATC | 1.05 ± 0.063
CTCTTTGCAG | 1.086 ± 0.0044
CTGAAGAATT | 1.03 ± 0.015
CTGACCTGTA | 1.093 ± 0.0021

Sequence | switch fluorescence ratio
CTGACGTGCT | 1.062 ± 0.004
CTGAGCAAG | 2.34 ± 0.28
CTGAGCGATT | 1.41 ± 0.032
CTGAGCTTCG | 1 ± 0.0032
CTGAGGGGTG | 1.01 ± 0.037
CTGAGGTGGT | 0.991 ± 0.046
CTGAGGTTAT | 1.04 ± 0.038
CTGAGTATGC | 1.05 ± 0.026
CTGAGTTTAT | 0.997 ± 0.023
CTGATACATT | 0.9715 ± 0.0069
CTGATACTGG | 0.997 ± 0.045
CTGATAGGAT | 1.22 ± 0.37
CTGATGCCGT | 1.08 ± 0.057
CTGATGCGGG | 1.06 ± 0.062
CTGATGTGGG | 0.964 ± 0.015
CTGATTTTCC | 1.01 ± 0.061
CTGCAAGCGG | 1.28 ± 0.057
CTGCAGGGGG | 1.05 ± 0.044
CTGCAGTTGA | 1.04 ± 0.024
CTGCATGGTT | 1.01 ± 0.016
CTGCCCTATT | 1 ± 0.023
CTGCGACTGT | 1.026 ± 0.0099
CTGCGACTTT | 1.02 ± 0.035
CTGCGAGGAT | 1.01 ± 0.034
CTGCGGGAGG | 1.008 ± 0.0024

Sequence | switch fluorescence ratio
CTGCGGGGGA | 1.03 ± 0.037
CTGCGGGTTA | 1.01 ± 0.015
CTGCGTCTAA | 1.03 ± 0.027
CTGCGTGATG | 1.03 ± 0.011
CTGCTAGGCT | 1.01 ± 0.028
CTGCTTGGGA | 1.012 ± 0.0033
CTGGAATGTG | 1.003 ± 0.01
CTGGACCTTG | 0.977 ± 0.026
CTGGACGCTG | 1.01 ± 0.017
CTGGAGCGCT | 1.22 ± 0.054
CTGGATCCTT | 1.05 ± 0.017
CTGGATGTTA | 0.999 ± 0.024
CTGGCACAGA | 0.988 ± 0.019
CTGGCACTGG | 1.016 ± 0.0056
CTGGCAGGGC | 1.07 ± 0.016
CTGGCATGGA | 1.01 ± 0.021
CTGGCCGGGC | 1.03 ± 0.022
CTGGCGACAC | 1.39 ± 0.14
CTGGCTACTA | 1.03 ± 0.031
CTGGCTAGAG | 0.973 ± 0.018
CTGGCTATTG | 1.022 ± 0.0028
CTGGGACGTG | 0.967 ± 0.028
CTGGGAGGGT | 0.9977 ± 0.0012
CTGGGCCCGG | 1.16 ± 0.27
CTGGGCCGTC | 1.01 ± 0.021

Sequence | switch fluorescence ratio
CTGGGCGGTG | 0.9982 ± 0.0052
CTGGGGAGCG | 0.954 ± 0.034
CTGGGGATCG | 1.02 ± 0.043
CTGGGGCGCT | 1.028 ± 0.0032
CTGGGGCGGA | 0.983 ± 0.052
CTGGGGCGGG | 0.996 ± 0.057
CTGGGGCGTT | 0.983 ± 0.0034
CTGGGGGAAC | 1.004 ± 0.0049
CTGGGGGCCG | 0.979 ± 0.054
CTGGGGGGTC | 1.24 ± 0.41
CTGGGGTTGT | 1.02 ± 0.012
CTGGGTAGAC | 1.08 ± 0.011
CTGGGTGTTC | 1.05 ± 0.035
CTGGGTTTGG | 1 ± 0.025
CTGGTAAAGA | 0.984 ± 0.015
CTGGTAATTT | 1.02 ± 0.079
CTGGTATACG | 1.06 ± 0.055
CTGGTATAGG | 0.977 ± 0.028
CTGGTATATC | 1.063 ± 0.0067
CTGGTATGCG | 0.969 ± 0.054
CTGGTCATTT | 0.997 ± 0.069
CTGGTCCGGT | 0.994 ± 0.018
CTGGTGCGCG | 0.98 ± 0.032
CTGGTGGAGC | 0.954 ± 0.021
CTGGTGGGGG | 0.9702 ± 0.0027

Sequence | switch fluorescence ratio
CTGGTGTATT | 1.017 ± 0.0046
CTGGTTACGC | 1.003 ± 0.0057
CTGGTTACGG | 1.01 ± 0.015
CTGGTTCACC | 0.99 ± 0.013
CTGGTTCAGA | 0.994 ± 0.013
CTGGTTGATT | 0.997 ± 0.04
CTGGTTGGGA | 0.992 ± 0.013
CTGTAAAGAG | 0.99 ± 0.035
CTGTAGGGGC | 1.09 ± 0.062
CTGTATAACG | 0.998 ± 0.031
CTGTATGATC | 1 ± 0.024
CTGTATTTGG | 1 ± 0.012
CTGTATTTGT | 1.03 ± 0.019
CTGTCCGTTG | 1.01 ± 0.017
CTGTCGAGGC | 0.977 ± 0.053
CTGTCGGGTT | 1.03 ± 0.04
CTGTCTGGCT | 1.02 ± 0.016
CTGTGCAACT | 1.0489 ± 0.00058
CTGTGGATGC | 1.089 ± 0.0038
CTGTGGCAGG | 1.021 ± 0.0041
CTGTGGGCCG | 1 ± 0.02
CTGTGGGCGC | 1.01 ± 0.027
CTGTGGGGAT | 0.961 ± 0.014
CTGTGTAGCT | 1.02 ± 0.024
CTGTGTGCAG | 1.01 ± 0.034
